Reference: US20240116985A1 (published 2024)
Starred links: 1 amine or outer side, 2 acyl side, 3 side chain; linkers in the order of their positions; H or OH if unused. Positions of bridges follow the written chain, without caps; N, C: chain ends. Non-standard residues stand in square brackets, D forms with d. Primed or numbered codes have the meaning given here. ReN = (R)-5-(((allyloxy)carbonyl)(methyl)amino)-2-amino-2-methylpentanoic acid, stapling residue, C=CCOC(=O)N(C)CCC[C@@](C)(N[*:1])C(=O)[*:2]; Az″ = 1-((allyloxy)carbonyl)-3-aminoazetidine-3-carboxylic acid (staple end via allyl carbamate), C=CCOC(=O)N1CC(N[*:1])(C(=O)[*:2])C1; PyrS(3) = (S)-1-((allyloxy)carbonyl)-3-aminopyrrolidine-3-carboxylic acid, stapling residue, C=CCOC(=O)N1CC[C@@](N[*:1])(C(=O)[*:2])C1; PyrS″ = (S)-1-((allyloxy)carbonyl)-3-aminopyrrolidine-3-carboxylic acid (stapling residue), C=CCOC(=O)N1CC[C@@](N[*:1])(C(=O)[*:2])C1; SeN = (S)-5-(((allyloxy)carbonyl)(methyl)amino)-2-amino-2-methylpentanoic acid, C=CCOC(=O)N(C)CCC[C@](C)(N[*:1])C(=O)[*:2]; RdN = (R)-4-(((allyloxy)carbonyl)(methyl)amino)-2-amino-2-methylbutanoic acid, C=CCOC(=O)N(C)CC[C@@](C)(N[*:1])C(=O)[*:2]; SdN = (S)-4-(((allyloxy)carbonyl)(methyl)amino)-2-amino-2-methylbutanoic acid, C=CCOC(=O)N(C)CC[C@](C)(N[*:1])C(=O)[*:2]; SgN = (S)-3-(((allyloxy)carbonyl)(methyl)amino)-2-amino-2-methylpropanoic acid, C=CCOC(=O)N(C)C[C@](C)(N[*:1])C(=O)[*:2]; PyrS = (S)-1-((allyloxy)carbonyl)-3-aminopyrrolidine-3-carboxylic acid, C=CCOC(=O)N1CC[C@@](N[*:1])(C(=O)[*:2])C1; Az(3) = 1-((allyloxy)carbonyl)-3-aminoazetidine-3-carboxylic acid, C=CCOC(=O)N1CC(N[*:1])(C(=O)[*:2])C1; R7″ = (R)-2-amino-2-methylnon-8-enoic acid (stapling residue), C=CCCCCC[C@@](C)(N[*:1])C(=O)[*:2]; R7 = (R)-2-amino-2-methylnon-8-enoic acid, C=CCCCCC[C@@](C)(N[*:1])C(=O)[*:2]; R6 = (R)-2-amino-2-methyloct-7-enoic acid, C=CCCCC[C@@](C)(N[*:1])C(=O)[*:2]; R4 = (R)-2-amino-2-methylhex-5-enoic acid, C=CCC[C@@](C)(N[*:1])C(=O)[*:2]; Phe(4-COOH) = N[C@@H](Cc1ccc(C(=O)O)cc1)C(=O)O; S7 = C[C@@](CCCCCC=[*:3])(N[*:1])C(=O)[*:2]; Bip = N[C@@H](Cc1ccc(-c2ccccc2)cc1)C(=O)O; 3Pal = N[C@@H](Cc1cccnc1)C(=O)O; R8 = C=CCCCCCC[C@@](C)(N)C(=O)O; Aad = N[C@@H](CCCC(=O)O)C(=O)O; Cha = N[C@@H](CC1CCCCC1)C(=O)O; S8 = C=CCCCCCC[C@](C)(N)C(=O)O; R5 = C=CCCC[C@@](C)(N)C(=O)O; hLeu = CC(C)CC[C@H](N)C(=O)O; S5 = C=CCCC[C@](C)(N)C(=O)O; Nle = CCCC[C@H](N)C(=O)O

T1: full-length beta-Catenin (Uniprot ID P35222) (Homo sapiens (Human), UniProt P35222 2-781)
T1 construct: The assay text says 'full-length'; also called B-Catenin; bCat
T1 sequence: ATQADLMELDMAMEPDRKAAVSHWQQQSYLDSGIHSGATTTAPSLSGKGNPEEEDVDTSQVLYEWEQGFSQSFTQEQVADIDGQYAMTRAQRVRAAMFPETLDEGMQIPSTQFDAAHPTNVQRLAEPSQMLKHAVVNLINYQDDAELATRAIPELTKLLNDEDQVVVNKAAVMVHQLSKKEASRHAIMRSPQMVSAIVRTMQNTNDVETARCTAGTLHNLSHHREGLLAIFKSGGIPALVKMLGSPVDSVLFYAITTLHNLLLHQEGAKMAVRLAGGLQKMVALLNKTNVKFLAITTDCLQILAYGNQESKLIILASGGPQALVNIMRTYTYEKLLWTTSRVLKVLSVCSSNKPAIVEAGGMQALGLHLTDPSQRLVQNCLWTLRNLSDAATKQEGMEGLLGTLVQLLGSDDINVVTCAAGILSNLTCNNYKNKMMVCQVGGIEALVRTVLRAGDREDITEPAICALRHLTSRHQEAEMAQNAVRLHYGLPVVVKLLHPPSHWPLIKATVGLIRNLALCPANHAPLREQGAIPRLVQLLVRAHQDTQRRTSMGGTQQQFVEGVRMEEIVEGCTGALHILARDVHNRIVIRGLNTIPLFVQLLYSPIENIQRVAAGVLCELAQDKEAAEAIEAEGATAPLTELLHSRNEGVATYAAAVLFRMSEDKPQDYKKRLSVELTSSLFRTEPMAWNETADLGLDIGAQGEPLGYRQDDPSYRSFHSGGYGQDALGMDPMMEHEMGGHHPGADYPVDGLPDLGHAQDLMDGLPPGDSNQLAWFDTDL


Biological target: T1, full-length beta-Catenin (Uniprot ID …)
Experiment: AlphaScreen competition vs biotin-TCF4(10-53) on full-length beta-catenin
Protocol: Equal volume of the titrated peptide was added to the plate and incubated for 15 minutes at 20° C. Then 4 uL of donor and 4 uL acceptor beads at 10 ug/mL were added to the plate, for a 16 uL reaction pool and protected from light for 60 minutes at 20° C. prior to read. Reads were performed on a CLARIOstar plate reader (BMG Labtech) in duplicate, and data were fitted to a 1:1 binding model with hill slope using an in-house script. All provided concentrations are final concentrations.

Row | Binder | EC50 [µM]
1 | Ac-FDA[Az(3)]DDAAFV[S7]FWQ-NH2 (staple 4-11, Stapled peptide composition) [I-33] | 9.98
2 | Ac-FDA[R8]D[hLeu]AAFV[PyrS]FWQ-NH2 (staple 4-11; not fully specified; printed as Ac-Phe-Asp-Ala-R8-Asp-hLeu-Ala-Ala-Phe-Val-PyrS-Phe-Trp-Gln-NH2, Stapled peptide composition) [I-18] | ≥ 10
3 | Ac-FDA[R8]D[Cha]AAFV[PyrS]FWQ-NH2 (staple 4-11; not fully specified; printed as Ac-Phe-Asp-Ala-R8-Asp-Cha-Ala-Ala-Phe-Val-PyrS-Phe-Trp-Gln-NH2, Stapled peptide composition) [I-15] | ≥ 10
4 | Ac-FDA[R8]D[Nle]AAFV[PyrS]FWQ-NH2 (staple 4-11; not fully specified; printed as Ac-Phe-Asp-Ala-R8-Asp-nLeu-Ala-Ala-Phe-Val-PyrS-Phe-Trp-Gln-NH2, Stapled peptide composition) [I-14] | 9.76
5 | Ac-FDA[R8]D[Phe(4-COOH)]AAFV[PyrS″]FWQ-NH2 (staple 4-11, Stapled peptide composition) [I-7] | ≥ 10
6 | Ac-FDA[R8]D[Cha]AAFV[PyrS]FWQ-NH2 (staple 4-11; not fully specified; printed as Ac-Phe-Asp-Ala-R8-Asp-Cha-Ala-Ala-Phe-Val-PyrS-Phe-Trp-Gln-NH2, Stapled peptide composition) [I-16] | ≥ 10
7 | Ac-FDA[R8]D[Bip]AAFV[PyrS″]FWQ-NH2 (staple 4-11; not fully specified; printed as Ac-Phe-Asp-Ala-R8-Asp-Bip-Ala-Ala-Phe-Val-PyrS-Phe-Trp-Gln-NH2, Stapled peptide composition) [I-11] | ≥ 10
8 | Ac-FDA[R5]DDAAFV[SdN]FWQ-NH2 (staple 4-11, Stapled peptide composition) [I-37] | ≥ 10
9 | Ac-FDA[R8]D[Aad]AAFV[PyrS(3)]FWQ-NH2 (staple 4-11; also: earlier-eluting HPLC isomer, E/Z not given here, Stapled peptide composition) [I-5] | ≥ 10
10 | Ac-FDA[R8]D[Phe(4-COOH)]AAFV[PyrS″]FWQ-NH2 (staple 4-11, Stapled peptide composition) [I-8] | ≥ 10
11 | Ac-FDA[R8]D[Bip]AAFV[PyrS(3)]FWQ-NH2 (staple 4-11, Stapled peptide composition) [I-12] | ≥ 10
12 | Ac-FDA[R8]D[3Pal]AAFV[PyrS″]FWQ-NH2 (staple 4-11, Stapled peptide composition) [I-10] | ≥ 10
13 | Ac-FDA[R8]DDAAFV[SgN]FWQ-NH2 (staple 4-11, Stapled peptide composition) [I-34] | ≥ 10
14 | Ac-FDA[R8]DDAAFV[Az(3)]FWQ-NH2 (staple 4-11; not fully specified; printed as Ac-Phe-Asp-Ala-R8-Asp-Asp-Ala-Ala-Phe-Val-Az-Phe-Trp-Gln-NH2, Stapled peptide composition) [I-39] | ≥ 10
15 | Ac-FDA[RdN]DDAAFV[S7]FWQ-NH2 (staple 4-11; also: later-eluting isomer of same sequence as I-1, Stapled peptide composition) [I-2] | ≥ 10
16 | Ac-FDA[R8]D[3Pal]AAFV[PyrS″]FWQ-NH2 (staple 4-11, Stapled peptide composition) [I-9] | ≥ 10
17 | Ac-FDA[R7]DDAAFV[Az(3)]FWQ-NH2 (staple 4-11, Stapled peptide composition) [I-38] | ≥ 10
18 | Ac-FDA[R8]D[hLeu]AAFV[PyrS]FWQ-NH2 (staple 4-11, Stapled peptide composition) [I-17] | ≥ 10
19 | Ac-FDA[R8]DDADFV[PyrS]FWQ-NH2 (staple 4-11; not fully specified; printed as Ac-Phe-Asp-Ala-R8-Asp-Asp-Ala-Asp-Phe-Val-PyrS-Phe-Trp-Gln-NH2, Stapled peptide composition) [I-20] | ≥ 10
20 | Ac-FDA[R8]DDADFV[PyrS]FWQ-NH2 (staple 4-11; not fully specified; printed as Ac-Phe-Asp-Ala-R8-Asp-Asp-Ala-Asp-Phe-Val-PyrS-Phe-Trp-Gln-NH2, Stapled peptide composition) [I-19] | ≥ 10
21 | Ac-FDA[R8]DDAEFV[PyrS]FWQ-NH2 (staple 4-11; not fully specified; printed as Ac-Phe-Asp-Ala-R8-Asp-Asp-Ala-Glu-Phe-Val-PyrS-Phe-Trp-Gln-NH2, Stapled peptide composition) [I-21] | ≥ 10
22 | Ac-FDA[R8]DDAEFV[PyrS]FWQ-NH2 (staple 4-11; also: later-eluting HPLC isomer peak, Stapled peptide composition) [I-22] | ≥ 10
23 | FDAXDDAAFVXFWQ (not fully specified; Ac-Phe-Asp-Ala-ReN-Asp-Asp-Ala-Ala-Phe-Val-S6-Phe-Trp-Gln-NH2 as printed: N-terminal acetyl, C-terminal amide, ReN at 4 stapled to S6 at 11, Stapled peptide composition) [I-29] | ≥ 10
24 | Ac-FDA[R8]D[Nle]AAFV[PyrS]FWQ-NH2 (staple 4-11, Stapled peptide composition) [I-13] | ≥ 10

Further binders by falling EC50, results first:

Row | EC50 [µM] | Binder
25 | 9.54 | Ac-FDA[Az″]DDAAFV[S8]FWQ-NH2 (staple 4-11, Stapled peptide composition) [I-35]
26 | 9.22 | Ac-FDA[R8]DDA[Aad]FV[PyrS″]FWQ-NH2 (staple 4-11; also: earlier-eluting HPLC peak, Stapled peptide composition) [I-23]
27 | 9.13 | Ac-FDA[R8]DEAAFV[PyrS″]FWQ-NH2 (staple 4-11, Stapled peptide composition) [I-3]
28 | 8.82 | Ac-FDA[R7″]DDAAFV[PyrS″]FWQ-NH2 (staple 4-11, Stapled peptide composition) [I-30]
29 | 8.57 | Ac-FDA[R8]DDA[Aad]FV[PyrS]FWQ-NH2 (staple 4-11; not fully specified; printed as Ac-Phe-Asp-Ala-R8-Asp-Asp-Ala-Aad-Phe-Val-PyrS-Phe-Trp-Gln-NH2, Stapled peptide composition) [I-24]
30 | 8.46 | FDAXDDAAFVXFWQ (not fully specified; Ac-Phe-Asp-Ala-ReN-Asp-Asp-Ala-Ala-Phe-Val-S6-Phe-Trp-Gln-NH2 as printed: N-terminal acetyl, C-terminal amide, ReN at 4 stapled to S6 at 11, Stapled peptide composition) [I-28]
31 | 8.27 | Ac-FDA[R4]DDAAFV[SeN]FWQ-NH2 (staple 4-11, Stapled peptide composition) [I-36]
32 | 8.11 | Ac-FDA[R6]DDAAFV[SeN]FWQ-NH2 (staple 4-11, Stapled peptide composition) [I-26]
33 | 7.35 | FDAXDDAAFVXFWQ (not fully specified; Ac-Phe-Asp-Ala-Az-Asp-Asp-Ala-Ala-Phe-Val-S7-Phe-Trp-Gln-NH2 as printed: N-terminal acetyl, C-terminal amide, Az at 4 stapled to S7 at 11, Stapled peptide composition) [I-32]
34 | 7.22 | Ac-FDA[R5]DDAAFV[SeN]FWQ-NH2 (staple 4-11, Stapled peptide composition) [I-25]
35 | 7.22 | Ac-FDA[R7]DDAAFV[PyrS]FWQ-NH2 (staple 4-11; not fully specified; printed as Ac-Phe-Asp-Ala-R7-Asp-Asp-Ala-Ala-Phe-Val-PyrS-Phe-Trp-Gln-NH2, Stapled peptide composition) [I-31]
36 | 6.82 | Ac-FDA[ReN]DDAAFV[S5]FWQ-NH2 (staple 4-11, Stapled peptide composition) [I-27]
37 | 6.5 | Ac-FDA[R8]D[Aad]AAFV[PyrS]FWQ-NH2 (staple 4-11, Stapled peptide composition) [I-6]
38 | 5.89 | Ac-FDA[R8]DEAAFV[PyrS″]FWQ-NH2 (staple 4-11; not fully specified; printed as Ac-Phe-Asp-Ala-R8-Asp-Glu-Ala-Ala-Phe-Val-PyrS-Phe-Trp-Gln-NH2, Stapled peptide composition) [I-4]
